Here are results for 2 molecules from patent US20260250318A1, “COMPOSITIONS AND METHODS FOR CROSSING THE BLOOD BRAIN BARRIER” (VOYAGER THERAPEUTICS, INC., priority 2022, published 2026).

The subject of data set [1] is brain, spinal cord, liver and peripheral tissues. The experiment in a line: Individual capsid characterization in mice (qPCR transgene mRNA, viral DNA, IVIS, anti-GFP IHC). The settings on record: for DNA (viral genome quantification), Brain, relative to the AAV9 control / mRNA (transgene expression), Brain, relative to the AAV9 control / DNA (viral genome quantification), Liver, relative to the AAV9 control / mRNA (transgene expression), Liver, relative to the AAV9 control: BALB/c mice, tail vein 5e11 VG/dose. How it is done:
AAV particles were generated with each of these capsid variants encapsulating a luciferase-EGFP transgene driven by a CMV/chicken beta actin promoter in a single stranded viral genome. Each capsid variant and AAV9 control were tested by intravenously administering by tail vein injection, the AAV particle formulation at 5e11 VG/dose (2.5E13 vg/kg) to three female BALB/c mice. The in-life period was 28 days and then various CNS and peripheral tissues were collected for measuring transgene mRNA, transgene protein, and viral DNA (biodistribution).
At 28 days post-injection of the AAV particles encapsulated in the TTM-001 capsid variant (AAV_TTM-001), mice were injected with luciferin and their brains were harvested for IVIS imaging.
The brains isolated from mice injected with the AAV particles encapsulated in the TTM-001 capsid variant (AAV_TTM-001) or the TTM-002 capsid variant (AAV_TTM-002) were assayed by qPCR for the presence of transgene RNA as a measure of transgene expression, and the presence of viral DNA as a measure of viral genome levels. Data were provided as fold over AAV9 (Table 12).
The brain tissues and spinal cords of the mice were also subjected to anti-GFP immunohistochemistry staining to evaluate overall CNS tropism and biodistribution.
Peripheral tissues were also isolated from the mice intravenously injected with the AAV particles encapsulated in the TTM-001 capsid variant or the TTM-002 capsid variant for analysis by qPCR and/or GFP immunohistochemical staining. Transgene mRNA levels and viral genome DNA levels were quantified in the liver by qPCR and the fold over AAV9 was calculated for each capsid variant (Table 12).

Data set [2] relates to N-linked galactose on HeLa cells. Briefly: Transduction of HeLa cells after neuraminidase treatment (Luc2 activity). It counts as cell-based, human. How it is done:
Primary glycan receptors have been identified for various AAV serotypes, including AAV9 which binds N-linked galactose. In order to investigate the ability of TTM-001 and TTM-002 AAV9 variants to retain this natural glycan binding, HeLa cells were treated with increasing concentrations of Neuraminidase ([…]), which cleaves N-sialic acid and exposes N-galactose. The treated cells were then transduced with AAV particles comprising the TTM-001 capsid variant (AAV_TTM-001), the TTM-002 capsid variant (AAV_TTM-002), or an AAV9 control (AAV_AAV9cntl), transduction was measured by quantification of Luc2 activity (RLU), and data was normalized relative to the no neuraminidase control.

For data set [3], the target named is T1, ALPL (Homo sapiens, UniProt P05186).
T1 sequence (P05186 18-501): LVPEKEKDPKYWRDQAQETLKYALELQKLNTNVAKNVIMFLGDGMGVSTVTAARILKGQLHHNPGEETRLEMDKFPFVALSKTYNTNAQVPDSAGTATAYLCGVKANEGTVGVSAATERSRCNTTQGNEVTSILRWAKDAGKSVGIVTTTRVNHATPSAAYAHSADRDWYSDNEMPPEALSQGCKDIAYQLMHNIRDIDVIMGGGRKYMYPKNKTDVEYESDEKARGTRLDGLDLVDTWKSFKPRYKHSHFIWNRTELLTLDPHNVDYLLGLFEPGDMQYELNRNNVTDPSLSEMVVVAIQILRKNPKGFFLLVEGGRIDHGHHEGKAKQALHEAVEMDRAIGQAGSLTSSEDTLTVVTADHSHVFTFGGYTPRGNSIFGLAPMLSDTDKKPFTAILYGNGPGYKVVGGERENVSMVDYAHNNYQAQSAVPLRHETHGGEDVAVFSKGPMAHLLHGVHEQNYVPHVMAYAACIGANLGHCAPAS
The experiment in a line: SPR (Biacore 8K) binding of peptide ligands to ALPL. The conditions noted are these: 50 μM peptides or 250 nM capsids flowed over. How it is done: Binding and interaction between the peptides and the ALPL receptor were measured by Surface Plasmon Resonance (SPR) on a Biacore 8K instrument. The biotinylated peptides in Table 37 were captured on the streptavidin biosensor chip and 1000 nM of ALPL and buffer were passed over the peptides to monitor binding. […] His-tagged ALPL was then captured on the chip pre-immobilized with anti-His antibody, and 50 μM of the peptides in Table 37 or 250 nM of the AAV9 control capsid, the TTM-001 capsid variant (SEQ ID NO: 981), or the TTM-002 capsid variant (SEQ ID NO: 982) were flowed over the ALPL to check for binding. […] The longer peptides derived from TTM-002,
were also flowed over the his-tagged ALPL captured on the CM5 sensor chip pre-immobilized with anti-His antibody.
Binding and interaction between the phosho-peptides and the ALPL receptor were also measured by SPR. The biotinylated and phosphorylated peptides in Table 38 were captured on the streptavidin biosensor chip along with their non-phosphorylated counterparts, […] (SEQ ID NO: 4500) and […] (SEQ ID NO: 4503). ALPL and buffer were passed over the peptides to monitor binding. The concentration of ALPL used ranged from 0 to 500 nM (0 nM, 125 nM, 250 nM, and 500 nM).
In a second experiment, his-tagged ALPL was first captured on a CM5 sensor chip pre-immobilized with anti-His antibody. The phosphorylated peptides in Table 38 and their non-phosphorylated counterparts, […] (SEQ ID NO: 4500) and […] (SEQ ID NO: 4503) and buffer were flowed over the ALPL protein to monitor binding.

In data set [4] the test system is N-linked galactose on HeLa cells. Briefly: Transduction of HeLa cells after neuraminidase treatment (Luc2 activity). It is filed as cell-based, human. The conditions noted are these: Neuraminidase 1000 mU/mL.
In data set [5] the target is T1, ALPL. It is filed as cell-based. Set-up: expressed in transfected cells; host or cells: HEK 293T. The conditions noted are these: viral genomes, 2 or 3 hours post-incubation, relative to pCMV6. As for the experimental part: Binding and internalization of AAV capsid variants comprising the TTM-001 capsid variant, the TTM-002 capsid variant, or the AAV9 control capsid was also investigated in cells engineered to express ALPL. HEK 293T cells were transfected via calcium phosphate transfection with a plasmid expressing ALPL, an AAVR positive control, or a pCMV6 negative control. At 24 hours post-transfection, the HEK 293T cells expressing the ALPL receptor were incubated with an AAV particle comprising the TTM-001 capsid variant, the TTM-002 capsid variant, or an AAV9 control capsid protein, expressing a GFP payload. At 2 or 3-hours post-incubation, cells were washed to remove unbound AAV particles and DNA was extracted to quantify viral genomes.

Regarding “AAV9: wild-type AAV9 control capsid [reference compound]”, the “DNA (viral genome quantification), Brain, relative to the AAV9 control” value in data set [1] (28 days, qPCR) stood at 1.0 fold over AAV9. For the same molecule, the “mRNA (transgene expression), Brain, relative to the AAV9 control” value in data set [1] (28 days, qPCR) is reported as 1.0 fold over AAV9. The “DNA (viral genome quantification), Liver, relative to the AAV9 control” value in data set [1] (28 days, qPCR, liver) is 1.0 fold over AAV9. Further, the “mRNA (transgene expression), Liver, relative to the AAV9 control” value in data set [1] (28 days, qPCR, liver) came to 1.0 fold over AAV9. Further, the “fold change in Luc2 activity (RLU) relative to the no neuraminidase control” value is on record as 2.7 fold in data set [2] (Neuraminidase 5 mU/mL), 6.2 fold in data set [2] (Neuraminidase 50 mU/mL), 11.1 fold in data set [2] (Neuraminidase 500 mU/mL) and 10.4 fold in data set [4]. In addition, the “binding to ALPL by SPR, His-tagged ALPL captured on chip” value in the data set with ALPL [3] was “No detectable binding”. Also, the “fold increase in binding/internalization in cells expressing ALPL” value in the data set with ALPL [5] is “unaffected”.

B1: TTM-001: AAV9 capsid variant comprising SPHSKA (SEQ ID NO: 941) in loop IV (protein)
chain 1: MAADGYLPDWLEDNLSEGIREWWALKPGAPQPKANQQHQDNARGLVLPGYKYLGPGNGLDKGEPVNAADAAALEHDKAYDQQLKAGDNPYLKYNHADAEFQERLKEDTSFGGNLGRAVFQAKKRLLEPLGLVEEAAKTAPGKKRPVEQSPQEPDSSAGIGKSGAQPAKKRLNFGQTGDTESVPDPQPIGEPPAAPSGVGSLTMASGGGAPVADNNEGADGVGSSSGNWHCDSQWLGDRVITTSTRTWALPTYNNHLYKQISNSTSGGSSNDNAYFGYSTPWGYFDFNRFHCHFSPRDWQRLINNNWGFRPKRLNFKLFNIQVKEVTDNNGVKTIANNLTSTVQVFTDSDYQLPYVLGSAHEGCLPPFPADVFMIPQYGYLTLNDGSQAVGRSSFYCLEYFPSQMLRTGNNFQFSYEFENVPFHSSYAHSQSLDRLMNPLIDQYLYYLSKTINGSGSPHSKAQNQQTLKFSVAGPSNMAVQGRNYIPGPSYRQQRVSTTVTQNNNSEFAWPGASSWALNGRNSLMNPGPAMASHKEGEDRFFPLSGSLIFGKQGTGRDNVDADKVMITNEEEIKTTNPVATESYGQVATNHQSAQAQAQTGWVQNQGILPGMVWQDRDVYLQGPIWAKIPHTDGNFHPSPLMGGFGMKHPPPQILIKNTPVPADPPTAFNKDKLNSFITQYSTGQVSVEIEWELQKENSKRWNPEIQYTSNYYKSNNVEFAVNTEGVYSEPRPIGTRYLTRNL
chain 2: GSGSPHSKAQNQQT
On to B1, for which the “luciferase signal in brain (IVIS imaging)” value in data set [1] (28 days post-injection, 5e11 VG/dose IV, vs AAV9) is “Robust luciferase signal”. Further, in data set [1] (28 days, qPCR), the “DNA (viral genome quantification), Brain, relative to the AAV9 control” value was determined as 32.0315 fold over AAV9 and the “mRNA (transgene expression), Brain, relative to the AAV9 control” value is reported as 30.4503 fold over AAV9. Besides, in data set [1] (28 days, qPCR, liver), the “DNA (viral genome quantification), Liver, relative to the AAV9 control” value is given as 0.4802 fold over AAV9 and the “mRNA (transgene expression), Liver, relative to the AAV9 control” value is 1.2356 fold over AAV9. Also, in data set [1] (compared to AAV9 control), the “anti-GFP immunohistochemistry staining in brain and spinal cord” value was “significantly stronger staining and payload expression”. In data set [1] (qPCR, 28 days, 5e11 VG/dose IV), the “transgene mRNA levels in the brain, fold over AAV9” value was 30 fold and the “viral genome (DNA) concentrations in the brain, fold over AAV9” value amounted to 32 fold. In addition, the “viral genome DNA levels in the liver compared to AAV9” value in data set [1] (qPCR, liver) was “only half as much”. Further, the “fold change in Luc2 activity (RLU) relative to the no neuraminidase control” value in data set [2] (Neuraminidase 5 mU/mL) was determined as 5.2 fold. Besides, the “fold change in Luc2 activity (RLU) relative to the no neuraminidase control” value in data set [2] (Neuraminidase 50 mU/mL) is listed as 6.7 fold. For the same molecule, in data set [2] (Neuraminidase 500 mU/mL), the “fold change in Luc2 activity (RLU) relative to the no neuraminidase control” value was 8.2 fold. Also, the “binding to ALPL by SPR, His-tagged ALPL captured on chip” value in the data set with ALPL [3] is recorded as “Binding to ALPL was detected”. For the same molecule, in data set [4], the “fold change in Luc2 activity (RLU) relative to the no neuraminidase control” value is given as 9.1 fold. In the data set with ALPL [5], the “fold increase in binding/internalization in cells expressing ALPL” value is given as 3 fold.
